From patent US9327008B2, “Cell-permeant peptide-based inhibitor of kinases” (Purdue Research Foundation, priority 2008, dated 2016) come the findings set out here.

What all share (assay type): biochemical
The target of one assay is T1, IGF-1R (Homo sapiens, UniProt P08069).
T1 construct: purchased Millipore (assay service)
The experiment in a line: Millipore radiometric kinase activity assay, IGF-1R (h). As for the experimental part: (§1) A commercial radiometric assay service (Millipore, Billerica, Mass.) was used to test the specificity and potency of peptides containing a coupled transduction domain and therapeutic domain, hereinafter “complete peptides”). In these assays, if the kinase is not inhibited by an inhibitor peptide, a positively charged substrate is phosphorylated with a radiolabeled phosphate group from an ATP.
(§2) In a final reaction volume of 25 μL, IGF-1 R (h) (5-10 mU) is incubated with 50 mM Tris pH 7.5, 0.1 mM EGTA, 0.1 mM Na3VO4, 0.1% β-mercaptoethanol, 250 μM […] [SEQ ID NO: 56], 10 mM MnCl2, 10 mM MgAcetate and [γ-^33P-ATP] (specific activity approx. 500 cpm/pmol, concentration as required). The reaction is initiated by the addition of the MgATP mix. After incubation for 40 minutes at room temperature, the reaction is stopped by the addition of 5 μL of a 3% phosphoric acid solution. 10 μL of the reaction is then spotted onto a P30 filtermat and washed three times for 5 minutes in 75 mM phosphoric acid and once in methanol prior to drying and scintillation counting.
(§3) IC50 values for inhibitor peptides were determined using Millipore's IC50Profiler Express service. The IC50 value was estimated from a 10-point curve of one-half log dilutions. For peptides tested for specificity, the concentration of the peptides that inhibited approximately 95% of MK2 activity was chosen to profile against a battery of kinases related to MK2, cell viability, or human disease from MilliporeKinaseProfiler service. In both assays, compounds were supplied in dimethylsulfoxide (DMSO). Every kinase activity measurement was conducted in duplicate.
(§4) Therapeutic inhibitor peptides were assayed for activity against human kinases related to MK2, cell viability, or human disease. The assays were performed using concentrations of therapeutic inhibitor peptides that yielded 2% to 8% of normal MK2 activity. Error is reported as the standard deviation between 2 samples, and “c” is rat AMPK whereas all other kinases used are human kinases.

A further assay has as its target T2, CHK1 (Homo sapiens, UniProt O14757).
T2 construct: purchased Millipore (assay service)
T2 sequence (O14757 1-476): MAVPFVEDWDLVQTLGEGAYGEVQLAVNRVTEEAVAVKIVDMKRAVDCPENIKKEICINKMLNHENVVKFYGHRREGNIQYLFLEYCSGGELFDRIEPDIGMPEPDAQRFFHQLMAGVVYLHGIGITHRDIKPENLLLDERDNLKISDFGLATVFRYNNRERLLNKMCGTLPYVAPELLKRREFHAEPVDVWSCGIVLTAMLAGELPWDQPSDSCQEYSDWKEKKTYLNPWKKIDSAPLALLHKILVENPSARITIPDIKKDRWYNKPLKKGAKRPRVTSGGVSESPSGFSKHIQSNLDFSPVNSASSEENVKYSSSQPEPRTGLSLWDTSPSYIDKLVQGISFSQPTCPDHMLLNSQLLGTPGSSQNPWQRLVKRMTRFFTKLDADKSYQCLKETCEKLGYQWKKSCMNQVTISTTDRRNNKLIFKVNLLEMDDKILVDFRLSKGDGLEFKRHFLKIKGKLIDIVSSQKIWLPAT
As to the kind of experiment: Millipore radiometric kinase activity assay, CHK1 (h). As for the experimental part:
as §1
as §2, with “μL, CHK1” for “μL, IGF-1 R”, “with 8” for “with 50”, “mM MOPS” for “mM Tris”, “pH 7.0, 0.2” for “pH 7.5, 0.1”, “mM EDTA, 200” for “mM EGTA, 0.1 mM Na3VO4, 0.1% β-mercaptoethanol, 250”, “NO: 53],” for “NO: 56], 10 mM MnCl2,”
as §3, §4

In the next assay the target is T3, PKA (Homo sapiens, UniProt P17612).
T3 construct: purchased Millipore (radiometric assay service)
As to the kind of experiment: Millipore radiometric kinase activity assay, PKA (h). As for the experimental part:
as §1
In a final reaction volume of 25 μL, PKA (h) (5-10 mU) is incubated with 8 mM MOPS pH 7.0, 0.2 mM EDTA, 30 μM LRRASLG [SEQ ID NO: 50] (Kemptide), 10 mM MgAcetate and [γ-^33P-ATP] (specific activity approx. 500 cpm/pmol, concentration as required). The reaction is initiated by the addition of the MgATP mix. After incubation for 40 minutes at room temperature, the reaction is stopped by the addition of 5 μL of a 3% phosphoric acid solution, 10 μL of the reaction is then spotted onto a P30 filtermat and washed three times for 5 minutes in 50 mM phosphoric acid and once in methanol prior to drying and scintillation counting.
as §3, §4

T1 sequence (P08069 31-1367): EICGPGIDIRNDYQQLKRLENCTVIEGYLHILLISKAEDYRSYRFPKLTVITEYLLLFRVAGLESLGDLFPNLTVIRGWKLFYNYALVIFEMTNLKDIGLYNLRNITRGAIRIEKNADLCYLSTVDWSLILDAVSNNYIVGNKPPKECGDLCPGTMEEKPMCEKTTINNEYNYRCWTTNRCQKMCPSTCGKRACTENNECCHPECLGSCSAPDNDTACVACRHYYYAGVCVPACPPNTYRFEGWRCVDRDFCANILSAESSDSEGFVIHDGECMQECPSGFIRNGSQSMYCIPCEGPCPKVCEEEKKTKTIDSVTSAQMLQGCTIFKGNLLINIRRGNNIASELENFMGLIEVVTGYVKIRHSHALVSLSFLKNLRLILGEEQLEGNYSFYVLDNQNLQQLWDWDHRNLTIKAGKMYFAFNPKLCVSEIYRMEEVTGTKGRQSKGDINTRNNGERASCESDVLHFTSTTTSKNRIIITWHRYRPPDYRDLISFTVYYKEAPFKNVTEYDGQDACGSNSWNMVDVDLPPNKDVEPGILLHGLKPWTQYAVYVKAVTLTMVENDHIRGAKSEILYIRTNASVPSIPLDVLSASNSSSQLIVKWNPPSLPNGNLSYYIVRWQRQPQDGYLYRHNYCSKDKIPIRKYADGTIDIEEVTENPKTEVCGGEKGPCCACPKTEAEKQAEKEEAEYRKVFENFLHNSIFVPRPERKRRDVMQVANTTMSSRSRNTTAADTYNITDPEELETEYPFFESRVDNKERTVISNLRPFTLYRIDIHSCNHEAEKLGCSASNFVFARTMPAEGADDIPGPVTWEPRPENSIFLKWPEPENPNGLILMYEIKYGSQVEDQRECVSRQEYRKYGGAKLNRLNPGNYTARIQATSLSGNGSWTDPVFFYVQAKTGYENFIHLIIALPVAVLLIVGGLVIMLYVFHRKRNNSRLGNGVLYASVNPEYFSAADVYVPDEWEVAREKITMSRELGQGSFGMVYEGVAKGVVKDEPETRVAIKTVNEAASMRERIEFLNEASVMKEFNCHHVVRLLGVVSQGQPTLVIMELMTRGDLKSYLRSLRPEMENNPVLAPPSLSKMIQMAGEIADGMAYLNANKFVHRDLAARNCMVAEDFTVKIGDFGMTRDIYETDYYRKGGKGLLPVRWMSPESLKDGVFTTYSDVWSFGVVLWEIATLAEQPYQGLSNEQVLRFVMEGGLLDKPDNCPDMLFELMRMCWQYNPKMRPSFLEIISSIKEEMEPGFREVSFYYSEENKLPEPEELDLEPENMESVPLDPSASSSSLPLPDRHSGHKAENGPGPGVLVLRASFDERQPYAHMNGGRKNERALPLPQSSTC

Take KAFAKLAARLYRKALARQLGVAA: the “IGF-1R Kinase Activity (%) (+SD %)” value in the assay with IGF-1R (peptide 100 μM) is 76 (12) %. Besides, the “CHK1 Kinase Activity (%) (+SD %)” value with CHK1 (peptide 100 μM) is reported as 68 (0) %. For the same sequence, in the assay with PKA (peptide 100 μM), the “PKA Kinase Activity (%) (+SD %)” value is recorded as 103 (1) %.

For the sequence WLRRIKAWLRRIKALNRQLGVAA, the “IGF-1R Kinase Activity (%) (+SD %)” value with IGF-1R (peptide 30 μM) was 227 (12) %; with IGF-1R (peptide 100 μM), 69 (4) %. In addition, the “CHK1 Kinase Activity (%) (+SD %)” value in the assay with CHK1 (peptide 30 μM) was 31 (5) %; with CHK1 (peptide 100 μM), 54 (6) %. Moreover, the figures for the “PKA Kinase Activity (%) (+SD %)” value with PKA (peptide 30 μM) and in the assay with PKA (peptide 100 μM) were 80 (1) % and 76 (8) %, respectively.
